According to publication PMC11377297, “Mechanical disengagement of the cohesin ring” (Nature Structural & Molecular Biology, 2023):

Target: T1, Smc1^Psm1-SNAP subunit of the fission yeast cohesin tetramer (head-tagged variant, TMR-labelled) (fission yeast, UniProt O94383 1-1228, TMR fluorophore on the SNAP-tag)
T1 construct: Psm1 (Smc1), fission yeast cohesin subunit; source: recombinant, purified as part of the cohesin tetramer; not shown: SNAP-tag, C-terminal, kept
T1 sequence (looked up): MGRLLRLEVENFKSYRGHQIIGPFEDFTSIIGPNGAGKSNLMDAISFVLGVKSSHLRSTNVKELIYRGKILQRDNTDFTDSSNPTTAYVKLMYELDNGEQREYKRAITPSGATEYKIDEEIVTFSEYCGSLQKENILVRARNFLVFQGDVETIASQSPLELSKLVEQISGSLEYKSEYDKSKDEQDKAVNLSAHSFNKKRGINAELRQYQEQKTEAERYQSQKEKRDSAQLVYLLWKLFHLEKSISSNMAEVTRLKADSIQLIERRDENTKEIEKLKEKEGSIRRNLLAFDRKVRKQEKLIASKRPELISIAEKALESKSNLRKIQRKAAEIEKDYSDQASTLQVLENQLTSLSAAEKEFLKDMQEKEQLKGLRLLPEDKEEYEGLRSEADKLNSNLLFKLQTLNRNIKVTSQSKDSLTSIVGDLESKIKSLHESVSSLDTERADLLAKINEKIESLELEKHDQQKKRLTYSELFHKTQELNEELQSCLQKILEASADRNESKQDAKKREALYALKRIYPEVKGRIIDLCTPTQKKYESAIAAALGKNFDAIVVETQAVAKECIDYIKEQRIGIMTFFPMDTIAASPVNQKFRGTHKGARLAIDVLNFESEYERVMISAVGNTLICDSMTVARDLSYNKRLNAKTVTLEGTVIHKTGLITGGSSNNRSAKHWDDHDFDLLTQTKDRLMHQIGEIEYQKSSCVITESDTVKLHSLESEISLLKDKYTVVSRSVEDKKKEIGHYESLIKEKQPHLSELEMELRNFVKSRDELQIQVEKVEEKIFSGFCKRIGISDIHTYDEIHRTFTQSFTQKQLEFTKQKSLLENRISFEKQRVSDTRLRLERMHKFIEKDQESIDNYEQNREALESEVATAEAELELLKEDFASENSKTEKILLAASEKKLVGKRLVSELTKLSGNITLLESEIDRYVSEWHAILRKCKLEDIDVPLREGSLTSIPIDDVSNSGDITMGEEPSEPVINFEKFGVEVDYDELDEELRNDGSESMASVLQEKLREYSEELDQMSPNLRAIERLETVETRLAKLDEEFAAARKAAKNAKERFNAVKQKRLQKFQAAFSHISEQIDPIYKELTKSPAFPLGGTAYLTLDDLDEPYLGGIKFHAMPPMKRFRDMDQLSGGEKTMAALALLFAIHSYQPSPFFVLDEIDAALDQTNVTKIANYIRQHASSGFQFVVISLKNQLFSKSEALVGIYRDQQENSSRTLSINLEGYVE
Assay: co-purification of the recombinant complex (SDS-PAGE, Coomassie); purified cohesin complex resolved by SDS-PAGE; purification methods in the Supplementary Information

B1: Smc3^Psm3-CLIP-biotin subunit of the fission yeast cohesin tetramer (head-tagged variant) (natural protein, UniProt O42649 1-1194, looked up)
chain: MYITKIVIQGFKSYKDYTVIEPLSPHHNVIVGRNGSGKSNFFAAIRFVLSDAYTHLSREERQALLHEGPGATVMSAYVEVTFANADNRFPTGKSEVVLRRTIGLKKDEYSLDKKTVSKTEVINLLESAGFSRSNPYYIVPQGRVTSLTNAKDSERLELLKEVAGTQIYENRRAESNKIMDETIQKSEKIDELLQYIEERLRELEEEKNDLAVYHKKDNERRCLEYAIYSREHDEINSVLDALEQDRIAALERNDDDSGAFIQREERIERIKAEITELNHSLELLRVEKQQNDEDYTNIMKSKVALELQSSQLSRQIEFSKKDESSKLNILSELESKISEKENELSEILPKYNAIVSEADDLNKRIMLLKNQKQSLLDKQSRTSQFTTKKERDEWIRNQLLQINRNINSTKENSDYLKTEYDEMENELKAKLSRKKEIEISLESQGDRMSQLLANITSINERKENLTDKRKSLWREEAKLKSSIENVKDDLSRSEKALGTTMDRNTSNGIRAVKDIAERLKLEGYYGPLCELFKVDNRFKVAVEATAGNSLFHIVVDNDETATQILDVIYKENAGRVTFMPLNKLRPKAVTYPDASDALPLIQYLEFDPKFDAAIKQVFSKTIVCPSIETASQYARSHQLNGITLSGDRSDKKGALTAGYRDYRNSRLDAIKNVKTYQIKFSDLQESLEKCRSEIESFDQKITACLDDLQKAQLSLKQFERDHIPLKDELVTITGETTDLQESMHHKSRMLELVVLELHTLEQQANDLKSELSSEMDELDPKDVEALKSLSGQIENLSHEFDAIIKERAHIEARKTALEYELNTNLYLRRNPLKAEIGSDNRIDESELNSVKRSLLKYENKLQIIKSSSSGLEEQMQRINSEISDKRNELESLEELQHEVATRIEQDAKINERNAAKRSLLLARKKECNEKIKSLGVLPEEAFIKYVSTSSNAIVKKLHKINEALKDYGSVNKKAYEQFNNFTKQRDSLLARREELRRSQESISELTTVLDQRKDEAIERTFKQVAKSFSEIFVKLVPAGRGELVMNRRSELSQSIEQDISMDIDTPSQKSSIDNYTGISIRVSFNSKDDEQLNINQLSGGQKSLCALTLIFAIQRCDPAPFNILDECDANLDAQYRSAIAAMVKEMSKTSQFICTTFRPEMVKVADNFYGVMFNHKVSTVESISKEEAMAFVEG
modifications: biotin on the CLIP-tag
notes: Psm3 (Smc3), fission yeast cohesin subunit; source: recombinant, purified as part of the cohesin tetramer; not shown: CLIP-tag, C-terminal, kept
  binding result: binds
